This is an account of results in the Human Domainome abundance scans (Beltran et al. 2025).

± gives the uncertainty stated by the source.

This series is described as follows: abundance fitness (aPCA) (normalised: wild type 0, dead -1); higher = more abundant; growth selection in yeast, the domain comes from the species named. As to conditions: Homo sapiens.
As to “DnaJ homolog subfamily B member 1 Q7E, P25685”, the abundance fitness was -0.547 ± 0.13.
As to “DnaJ homolog subfamily B member 1 Q7F, P25685”, the abundance fitness turned out to be 0.066 ± 0.11.
The value for “DnaJ homolog subfamily B member 1 Q7G, P25685” was -0.315 ± 0.21; that for “DnaJ homolog subfamily B member 1 Q7H, P25685” was -0.246 ± 0.15.
Turning to “DnaJ homolog subfamily B member 1 Q7I, P25685”, the abundance fitness was -0.144 ± 0.17.
Consider “DnaJ homolog subfamily B member 1 Q7K, P25685”, for which the abundance fitness is -0.014 ± 0.12.
In the case of “DnaJ homolog subfamily B member 1 Q7L, P25685” it was -0.049 ± 0.057.
In the case of “DnaJ homolog subfamily B member 1 Q7N, P25685”, the abundance fitness is 0.019 ± 0.13.
In the case of “DnaJ homolog subfamily B member 1 Q7P, P25685”, the abundance fitness is -0.567 ± 0.088.
On to “DnaJ homolog subfamily B member 1 Q7R, P25685”, for which the abundance fitness was -0.185 ± 0.071.
“DnaJ homolog subfamily B member 1 Q7S, P25685”: the abundance fitness is -0.286 ± 0.081.
For the substance “DnaJ homolog subfamily B member 1 Q7T, P25685”, the abundance fitness is -0.008 ± 0.078.
In turn, “DnaJ homolog subfamily B member 1 Q7V, P25685” displayed an abundance fitness of -0.307 ± 0.087.
The substance “DnaJ homolog subfamily B member 1 Q7W, P25685” had an abundance fitness of -0.207 ± 0.15.
As to “DnaJ homolog subfamily B member 1 Q7Y, P25685”, the abundance fitness was 0.022 ± 0.13.
The value for “DnaJ homolog subfamily B member 1 Q27A, P25685” was -0.15 ± 0.11; that for “DnaJ homolog subfamily B member 1 Q27C, P25685” was 0.012 ± 0.14.
In the case of “DnaJ homolog subfamily B member 1 Q27D, P25685”, the abundance fitness was determined as 0.003 ± 0.15.
The value for “DnaJ homolog subfamily B member 1 Q27E, P25685” was -0.231 ± 0.36; that for “DnaJ homolog subfamily B member 1 Q27F, P25685” was -0.115 ± 0.13; that for “DnaJ homolog subfamily B member 1 Q27G, P25685” was -0.277 ± 0.093.
As for “DnaJ homolog subfamily B member 1 Q27H, P25685”, the abundance fitness was -0.168 ± 0.18.
The substance “DnaJ homolog subfamily B member 1 Q27I, P25685” returned an abundance fitness of -0.057 ± 0.12.
Consider “DnaJ homolog subfamily B member 1 Q27K, P25685”, for which the abundance fitness was -0.021 ± 0.17.
The value for “DnaJ homolog subfamily B member 1 Q27L, P25685” was -0.121 ± 0.094; that for “DnaJ homolog subfamily B member 1 Q27M, P25685” was -0.054 ± 0.14; that for “DnaJ homolog subfamily B member 1 Q27N, P25685” was -0.14 ± 0.12.
The value for “DnaJ homolog subfamily B member 1 Q27R, P25685” was -0.215 ± 0.066; that for “DnaJ homolog subfamily B member 1 Q27T, P25685” was -0.266 ± 0.12; that for “DnaJ homolog subfamily B member 1 Q27W, P25685” was -0.064 ± 0.098.
Regarding “DnaJ homolog subfamily B member 1 Q27Y, P25685”, the abundance fitness is -0.056 ± 0.28.
For “DnaJ homolog subfamily B member 1 R13A, P25685”, the abundance fitness was -0.148 ± 0.081.
The substance “DnaJ homolog subfamily B member 1 R13C, P25685” had an abundance fitness of -0.262 ± 0.12.
Consider “DnaJ homolog subfamily B member 1 R13D, P25685”, for which the abundance fitness is -0.117 ± 0.22.
“DnaJ homolog subfamily B member 1 R13E, P25685” came in with an abundance fitness of -0.142 ± 0.089.
Take “DnaJ homolog subfamily B member 1 R13F, P25685”: the abundance fitness is -0.15 ± 0.1.
In the case of “DnaJ homolog subfamily B member 1 R13G, P25685” it was -0.305 ± 0.064; in that of “DnaJ homolog subfamily B member 1 R13H, P25685”, -0.191 ± 0.16.
“DnaJ homolog subfamily B member 1 R13I, P25685” returned an abundance fitness of -0.221 ± 0.15.
On to “DnaJ homolog subfamily B member 1 R13K, P25685”, for which the abundance fitness was -0.097 ± 0.089.
The value for “DnaJ homolog subfamily B member 1 R13L, P25685” was -0.191 ± 0.066; that for “DnaJ homolog subfamily B member 1 R13M, P25685” was -0.219 ± 0.092.
In the case of “DnaJ homolog subfamily B member 1 R13N, P25685”, the abundance fitness is -0.091 ± 0.11.
On to “DnaJ homolog subfamily B member 1 R13P, P25685”, for which the abundance fitness was -0.177 ± 0.088.
For “DnaJ homolog subfamily B member 1 R13Q, P25685”, the abundance fitness was 0.048 ± 0.2.
“DnaJ homolog subfamily B member 1 R13S, P25685”: the abundance fitness is -0.182 ± 0.056.
Turning to “DnaJ homolog subfamily B member 1 R13T, P25685”, the abundance fitness is -0.138 ± 0.089.
In the case of “DnaJ homolog subfamily B member 1 R13V, P25685” it was -0.157 ± 0.065; in that of “DnaJ homolog subfamily B member 1 R13W, P25685”, -0.434 ± 0.08.
Substance “DnaJ homolog subfamily B member 1 R13Y, P25685” yielded an abundance fitness of -0.279 ± 0.091.
As to “DnaJ homolog subfamily B member 1 R25A, P25685”, the abundance fitness turned out to be 0.011 ± 0.079.
In the case of “DnaJ homolog subfamily B member 1 R25C, P25685” it was -0.22 ± 0.14; in that of “DnaJ homolog subfamily B member 1 R25D, P25685”, -0.15 ± 0.13.
The value for “DnaJ homolog subfamily B member 1 R25E, P25685” was 0.173 ± 0.082.
As to “DnaJ homolog subfamily B member 1 R25F, P25685”, the abundance fitness is -0.199 ± 0.12.
“DnaJ homolog subfamily B member 1 R25G, P25685” came in with an abundance fitness of -0.007 ± 0.12.
In the case of “DnaJ homolog subfamily B member 1 R25H, P25685” it was -0.047 ± 0.11; in that of “DnaJ homolog subfamily B member 1 R25I, P25685”, 0.008 ± 0.13.
“DnaJ homolog subfamily B member 1 R25K, P25685” yielded an abundance fitness of -0.022 ± 0.057.
Substance “DnaJ homolog subfamily B member 1 R25M, P25685” gave an abundance fitness of -0.078 ± 0.12.
Substance “DnaJ homolog subfamily B member 1 R25N, P25685” registered an abundance fitness of -0.144 ± 0.29.
In the case of “DnaJ homolog subfamily B member 1 R25P, P25685” it was -0.462 ± 0.12.
The substance “DnaJ homolog subfamily B member 1 R25S, P25685” had an abundance fitness of 0.018 ± 0.076.
The value for “DnaJ homolog subfamily B member 1 R25T, P25685” was -0.181 ± 0.11; that for “DnaJ homolog subfamily B member 1 R25V, P25685” was 0.003 ± 0.062.
In turn, “DnaJ homolog subfamily B member 1 R25W, P25685” had an abundance fitness of -0.116 ± 0.092.
In turn, “DnaJ homolog subfamily B member 1 R26A, P25685” came in with an abundance fitness of 0.056 ± 0.18.
In turn, “DnaJ homolog subfamily B member 1 R26C, P25685” gave an abundance fitness of 0.064 ± 0.11.
“DnaJ homolog subfamily B member 1 R26D, P25685” showed an abundance fitness of 0.327 ± 0.25.
The value for “DnaJ homolog subfamily B member 1 R26F, P25685” was -0.032 ± 0.094.
On to “DnaJ homolog subfamily B member 1 R26G, P25685”, for which the abundance fitness is -0.117 ± 0.094.
“DnaJ homolog subfamily B member 1 R26H, P25685” had an abundance fitness of 0.163 ± 0.11.
The value for “DnaJ homolog subfamily B member 1 R26I, P25685” was 0.071 ± 0.16; that for “DnaJ homolog subfamily B member 1 R26K, P25685” was 0.052 ± 0.18.
Turning to “DnaJ homolog subfamily B member 1 R26L, P25685”, the abundance fitness turned out to be 0.068 ± 0.075.
With “DnaJ homolog subfamily B member 1 R26M, P25685”, the abundance fitness was -0.121 ± 0.13.
On to “DnaJ homolog subfamily B member 1 R26N, P25685”, for which the abundance fitness was 0.102 ± 0.17.
In the case of “DnaJ homolog subfamily B member 1 R26P, P25685”, the abundance fitness is -0.628 ± 0.1.
The value for “DnaJ homolog subfamily B member 1 R26Q, P25685” was -0.019 ± 0.22; that for “DnaJ homolog subfamily B member 1 R26S, P25685” was 0.064 ± 0.068.
“DnaJ homolog subfamily B member 1 R26T, P25685”: the abundance fitness is -0.128 ± 0.12.
Consider “DnaJ homolog subfamily B member 1 R26V, P25685”, for which the abundance fitness was 0.03 ± 0.15.
As for “DnaJ homolog subfamily B member 1 R26W, P25685”, the abundance fitness is -0.023 ± 0.081.
For “DnaJ homolog subfamily B member 1 R26Y, P25685”, the abundance fitness is -0.344 ± 0.19.
As for “DnaJ homolog subfamily B member 1 R30A, P25685”, the abundance fitness was 0.033 ± 0.072.
Take “DnaJ homolog subfamily B member 1 R30C, P25685”: the abundance fitness is 0.042 ± 0.16.
Consider “DnaJ homolog subfamily B member 1 R30E, P25685”, for which the abundance fitness worked out at 0.047 ± 0.24.
Take “DnaJ homolog subfamily B member 1 R30F, P25685”: the abundance fitness was -0.024 ± 0.089.
In turn, “DnaJ homolog subfamily B member 1 R30G, P25685” gave an abundance fitness of -0.056 ± 0.11.
“DnaJ homolog subfamily B member 1 R30H, P25685”: the abundance fitness is -0.125 ± 0.088.
As for “DnaJ homolog subfamily B member 1 R30I, P25685”, the abundance fitness was -0.036 ± 0.095.
